Measured values taken from the RNAGym collection of RNA variant scans (doi:10.1093/molbev/msab373).

B1: Azoarcus group I ribozyme (parent)
chain: GUGCCUUGCGCCGGGAAACCACGCAAGGGAUGGUGUCAAAUUCGGCGAAACCUAAGCGCCCGCCCGGGCGUAUGGCAACGCCGAGCCAAGCUUCGGCGCCUGCGCCGAUGAAGGUGUAGAGACUAGACGGCACCCACCUAAGGCAAACGCUAUGGUGAAGGCAUAGUCCAGGGAGUGGCGAAAGUCACACAAACCGG

Variants of: B1
Assay: reverse-splicing fitness (ratio to wild type); higher = more active; in vitro selection; Mg2+ level not given
Procedure, shortened: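 An in vitro group I ribozyme library with randomized positions was T7-transcribed and gel-purified. In triplicate, 10 pmol RNA in EPPS pH 7.5 was reacted with 50 pmoles of a 30-nt RNA substrate for 1 h at 37 °C across several added MgCl2 levels (1–48 mM), then stopped with EDTA. Products were reverse transcribed from a substrate-complementary primer, PCR-amplified and sequenced (HiSeq 4000). Fitness is a variant's read proportion after selection over that before, normalised to wild type.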

Point of comparison: C82U A111C A120C A145U C169G U176A, reverse-splicing fitness 0.013. Against it:
- C82U A111C A120C A145U C169G U176G — lower, 0.00515
- C82U A111C A120C A145U C169G U176C — higher, 0.0132
- C82U A111C A120C A145C C150A C169A — lower, 0.00737
- C82U A111C A120C A145C C150A C169G — lower, 0.00647
- C82U A111C A120C A145C C150A C169U — lower, 0.00906
- C82U A111C A120C A145C C150U C169G U176A — higher, 0.0188
- C82U A111C A120C A145C C150U C169G U176C — lower, 0.0118
- C82U A111C A120C A145C C150U C169G U176G — lower, 0.00566
- C82G C150A C169A — lower, 0.00956
- C82G C150A C169G — lower, 0.00937
- C82G C150A C169U — lower, 0.0101
- C82G C150A C169A U176A — higher, 0.0213
- C82G C150A C169A U176C — higher, 0.0158
- C82G C150A C169A U176G — lower, 0.00584
- C82U A111C A120C A145G C169U — lower, 0.0129
- C82U A111C A120C A145G C169A — lower, 0.0092
- C82U A111C A120C A145G C169G — lower, 0.00841
- C82G C150G — higher, 0.0318
- C82G C150U — higher, 0.252
- C82G C150A — higher, 0.0416
- C82U A111C A120C C150A C169A U176C — higher, 0.0136
- C82U A111C A120C C150A C169A U176A — higher, 0.0186
- C82U A111C A120C C150A C169A U176G — lower, 0.00712
- C82U A111C A120C A145C C169G U176C — higher, 0.015
- C82U A111C A120C A145C C169G U176A — higher, 0.0195
- C82U A111C A120C A145C C169G U176G — lower, 0.00555
- C82U A111C A120C A145C C150A C169G U176C — higher, 0.0151
- C82U A111C A120C A145C C150A C169G U176G — lower, 0.00588
- C82U A111C A120C A145C C150A C169G U176A — higher, 0.0253
- C82G A145U C150U C169U U176C — lower, 0.0121
- C82G A145U C150U C169U U176A — lower, 0.0118
- C82G A145U C150U C169U U176G — lower, 0.00492
- C82U A111C A120C A145U C150G C169A U176A — lower, 0.00888
- C82U A111C A120C A145U C150G C169A U176G — lower, 0.00632
- C82U A111C A120C A145U C150G C169A U176C — lower, 0.00938
- C82G A145U C169G U176A — lower, 0.00948
- C82G A145U C169G U176G — lower, 0.00439
- C82G A145U C169G U176C — lower, 0.0115
- C82U A111C A120C C150G C169U U176A — lower, 0.00808
- C82U A111C A120C C150G C169U U176C — higher, 0.0134
- C82U A111C A120C C150G C169U U176G — lower, 0.00565
- C82U A111C A120C A145G C150G C169G U176C — lower, 0.011
- C82U A111C A120C A145G C150G C169G U176A — lower, 0.00967
- C82U A111C A120C A145G C150G C169G U176G — lower, 0.00542
- C82U A111C A120C A145U C150A C169A — lower, 0.00776
- C82U A111C A120C A145U C150A C169U — lower, 0.0101
- C82U A111C A120C A145U C150A C169G — lower, 0.00745
- C82G C150G C169A U176G — lower, 0.00752
- C82G C150G C169A U176C — lower, 0.00997
- C82G C150G C169A U176A — lower, 0.0112
- C82U A111C A120C A145G C150A C169G U176A — higher, 0.015
- C82U A111C A120C A145G C150A C169G U176C — higher, 0.0245
- C82U A111C A120C A145G C150A C169G U176G — lower, 0.00635
- C82G A145U C150U C169A U176C — lower, 0.00851
- C82G A145U C150U C169A U176A — lower, 0.0114
- C82G A145U C150U C169A U176G — lower, 0.00466
- C82G A145U C150U U176A — higher, 0.236
- C82G A145U C150U U176G — higher, 0.0935
- C82G A145U C150U U176C — higher, 0.234
- C82G A145U C150U C169U — lower, 0.0123
- C82G A145U C150U C169A — lower, 0.00964
- C82G A145U C150U C169G — lower, 0.0103
- C82U A111C A120C C150A U176C — higher, 0.022
- C82U A111C A120C C150A U176G — lower, 0.00688
- C82U A111C A120C C150A U176A — lower, 0.0109
- C82U A111C A120C A145C C150G C169G U176C — lower, 0.00799
- C82U A111C A120C A145C C150G C169G U176A — lower, 0.00861
- C82U A111C A120C A145C C150G C169G U176G — lower, 0.00552
- C82G A145U C150G C169A — lower, 0.00874
- C82G A145U C150G C169U — lower, 0.0092
- C82G A145U C150G C169G — lower, 0.00774
- C82U A111C A120C A145C C150A C169A U176G — lower, 0.00679
- C82U A111C A120C A145C C150A C169A U176A — lower, 0.0113
- C82U A111C A120C A145C C150A C169A U176C — lower, 0.00754
- C82G C150A C169U U176G — lower, 0.0071
- C82G C150A C169U U176A — higher, 0.0154
- C82G C150A C169U U176C — higher, 0.0141
- C82U A111C A120C A145G C150G U176C — lower, 0.00988
- C82U A111C A120C A145G C150G U176A — lower, 0.00676
- C82U A111C A120C A145G C150G U176G — lower, 0.00622
- C82U A111C A120C C150A C169U — lower, 0.0128
- C82U A111C A120C C150A C169G — lower, 0.00864
- C82U A111C A120C C150A C169A — lower, 0.00879
